B1: Farnesoid X Receptor (receptor)
chain: MVMQFQGLENPIQISPHCSCTPSGFFMEMMSMKPAKGVLTEQVAGPLGQNLEVEPYSQYSNVQFPQVQPQISSSSYYSNLGFYPQQPEEWYSPGIYELRRMPAETLYQGETEVAEMPVTKKPRMGASAGRIKGDELCVVCGDRASGYHYNALTCEGCKGFFRRSITKNAVYKCKNGGNCVMDMYMRRKCQECRLRKCKEMGMLAECMYTGLLTEIQCKSKRLRKNVKQHADQTVNEDSEGRDLRQVTSTTKSCREKTELTPDQQTLLHFIMDSYNKQRMPQEITNKILKEEFSAEENFLILTEMATNHVQVLVEFTKKLPGFQTLDHEDQIALLKGSAVEAMFLRSAEIFNKKLPSGHSDLLEERIRNSGISDEYITPMFSFYKSIGELKMTQEEYALLTAIVILSPDRQYIKDREAVEKLQEPLLDVLQKLCKIHQPENPQHFACLLGRLTELRTFNHHHAEMLMSWRVNDHKFTPLLCEIWDVQ
modifications: 35S-radiolabeled
B2: Liver X Receptor α (receptor)
chain: MSLWLGAPVPDIPPDSAVELWKPGAQDASSQAQGGSSCILREEARMPHSAGGTAGVGLEAAEPTALLTRAEPPSEPTEIRPQKRKKGPAPKMLGNELCSVCGDKASGFHYNVLSCEGCKGFFRRSVIKGAHYICHSGGHCPMDTYMRRKCQECRLRKCRQAGMREECVLSEEQIRLKKLKRQEEEQAHATSLPPRASSPPQILPQLSPEQLGMIEKLVAAQQQCNRRSFSDRLRVTPWPMAPDPHSREARQQRFAHFTELAIVSVQEIVDFAKQLPGFLQLSREDQIALLKTSAIEVMLLETSRRYNPGSESITFLKDFSYNREDFAKAGLQVEFINPIFEFSRAMNELQLNDAEFALLIAISIFSADRPNVQDQLQVERLQHTYVEALHAYVSIHHPHDRLMFPRMLMKLVSLRTLSSVHSEQVFALRLQDKKLPPLLSEIWDVHE
modifications: 35S-radiolabeled
B3: Peroxisome Proliferator Activated Receptor α (receptor)
chain: MVDTESPLCPLSPLEAGDLESPLSEEFLQEMGNIQEISQSIGEDSSGSFGFTEYQYLGSCPGSDGSVITDTLSPASSPSSVTYPVVPGSVDESPSGALNIECRICGDKASGYHYGVHACEGCKGFFRRTIRLKLVYDKCDRSCKIQKKNRNKCQYCRFHKCLSVGMSHNAIRFGRMPRSEKAKLKAEILTCEHDIEDSETADLKSLAKRIYEAYLKNFNMNKVKARVILSGKASNNPPFVIHDMETLCMAEKTLVAKLVANGIQNKEAEVRIFHCCQCTSVETVTELTEFAKAIPGFANLDLNDQVTLLKYGVYEAIFAMLSSVMNKDGMLVAYGNGFITREFLKSLRKPFCDIMEPKFDFAMKFNALELDDSDISLFVAAIICCGDRPGLLNVGHIEKMQEGIVHVLRLHLQSNHPDDIFLFPKLLQKMADLRQLVTEHAQLVQIIKKTESDAALHPLLQEIYRDMY
modifications: 35S-radiolabeled

What follows are molecules tested against GST fusion with the receptor interaction domains (RID) of NCoRδ (region equivalent to amino acids 1817–2453 of NCoRω) (assay: pull-down; GST fusion protein (~50 ng) immobilised on ~10 μl glutathione-agarose; 35S-radiolabeled in vitro translated nuclear receptor (2–5 μl TnT product) in 120 μl HEMG buffer (4 mM HEPES pH 7.8, 0.2 mM EDTA, 5 mM MgCl2, 10% glycerol, 100 mM KCl, 0.1% Nonidet P-40, 1.5 mM DTT) with 10 mg/ml BSA; 3 hr at 4°C; eluted with 10 mM glutathione, SDS-PAGE, PhosphorImager).
With “Peroxisome Proliferator Activated Receptor γ (from UniProt P37231 1-505)” the relative binding to NCoRδ versus NCoRω (ratio (NCoRδ versus NCoRω)) was 0.88. With “Thyroid Hormone Receptor α (from UniProt P10827-2 1-410)” the relative binding to NCoRδ versus NCoRω (ratio (NCoRδ versus NCoRω)) was 0.42. In the case of B1, the relative binding to NCoRδ versus NCoRω (ratio (NCoRδ versus NCoRω)) is reported as 0.35. B2 showed a relative binding to NCoRδ versus NCoRω (ratio (NCoRδ versus NCoRω)) of 0.51. B3 was tested, and the relative binding to NCoRδ versus NCoRω (ratio (NCoRδ versus NCoRω)) was 0.79.
